Assay results reported in publication PMC4081113, “Cationic Surfactant-Based Colorimetric Detection of Plasmodium Lactate Dehydrogenase, a Biomarker for Malaria, Using the Specific DNA Aptamer”.

Tests used:
[1] = molecular target: Plasmodium vivax lactate dehydrogenase (PvLDH) (Plasmodium vivax, UniProt Q4PRK9 1-316); experiment: colorimetric AuNP/CTAB aggregation assay (A650/A520); settings: protein: recombinant; chain copies: 4
fibrinogen = fibrinogen (human, UniProt P02671-2;P02675;P02679-2 20-644;31-491;27-437); experiment: colorimetric AuNP/CTAB aggregation assay (A650/A520); 1 uM protein, 4 nM CTAB; 20 mM HEPES pH 7.4, room temperature, 20 nM aptamer with protein 20 min, then 4 nM CTAB 20 min, then AuNPs 5 min (200 uL final); settings: protein: commercial; chain copies: 2;2;2
[2] = molecular target: human lactate dehydrogenase A chain (hLDHA) (human, UniProt P00338 2-332); experiment: as above
[3] = molecular target: Plasmodium falciparum lactate dehydrogenase (PfLDH) (Plasmodium falciparum, UniProt Q76NM3 1-316); experiment: colorimetric AuNP/CTAB aggregation assay (A650/A520); 4 nM CTAB, 20 nM aptamer; LOD 2.94 pM (not a Kd); 20 mM HEPES pH 7.4, room temperature, 20 nM aptamer with protein 20 min, then 4 nM CTAB 20 min, then AuNPs 5 min (200 uL final); settings: protein: recombinant; chain copies: 4

Sequence of fibrinogen (P02671 other isoform, or with tags, fused parts or gaps, chain 1 of 3): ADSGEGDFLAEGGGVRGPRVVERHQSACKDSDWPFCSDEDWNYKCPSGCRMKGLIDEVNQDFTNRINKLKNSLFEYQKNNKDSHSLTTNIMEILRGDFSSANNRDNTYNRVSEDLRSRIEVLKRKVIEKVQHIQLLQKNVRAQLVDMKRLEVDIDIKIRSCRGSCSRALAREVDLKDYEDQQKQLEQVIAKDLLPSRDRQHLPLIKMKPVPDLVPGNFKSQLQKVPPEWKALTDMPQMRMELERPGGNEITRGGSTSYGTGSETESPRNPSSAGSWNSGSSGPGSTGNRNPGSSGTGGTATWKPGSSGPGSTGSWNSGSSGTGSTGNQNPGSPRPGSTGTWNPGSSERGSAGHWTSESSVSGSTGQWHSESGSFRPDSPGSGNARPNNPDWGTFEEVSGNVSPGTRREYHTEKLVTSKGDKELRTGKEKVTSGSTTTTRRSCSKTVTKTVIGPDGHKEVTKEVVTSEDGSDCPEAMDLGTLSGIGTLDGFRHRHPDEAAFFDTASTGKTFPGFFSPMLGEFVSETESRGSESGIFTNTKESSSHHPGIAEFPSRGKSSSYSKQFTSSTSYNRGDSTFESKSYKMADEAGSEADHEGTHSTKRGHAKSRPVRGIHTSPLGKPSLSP
Sequence of fibrinogen (P02675 31-491, chain 2 of 3): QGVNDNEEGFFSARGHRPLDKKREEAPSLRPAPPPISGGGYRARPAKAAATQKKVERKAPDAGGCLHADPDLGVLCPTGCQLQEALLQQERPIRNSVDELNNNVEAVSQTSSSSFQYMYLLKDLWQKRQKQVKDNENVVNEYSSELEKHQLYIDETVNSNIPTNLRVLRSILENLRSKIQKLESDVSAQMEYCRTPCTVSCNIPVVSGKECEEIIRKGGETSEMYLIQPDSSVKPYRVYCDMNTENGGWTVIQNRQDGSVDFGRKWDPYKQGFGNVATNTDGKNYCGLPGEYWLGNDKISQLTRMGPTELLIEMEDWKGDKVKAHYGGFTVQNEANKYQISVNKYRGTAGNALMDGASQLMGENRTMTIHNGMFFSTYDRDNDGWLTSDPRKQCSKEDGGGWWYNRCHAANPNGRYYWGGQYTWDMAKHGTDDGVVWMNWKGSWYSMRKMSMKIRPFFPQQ
Sequence of fibrinogen (P02679 other isoform, or with tags, fused parts or gaps, chain 3 of 3): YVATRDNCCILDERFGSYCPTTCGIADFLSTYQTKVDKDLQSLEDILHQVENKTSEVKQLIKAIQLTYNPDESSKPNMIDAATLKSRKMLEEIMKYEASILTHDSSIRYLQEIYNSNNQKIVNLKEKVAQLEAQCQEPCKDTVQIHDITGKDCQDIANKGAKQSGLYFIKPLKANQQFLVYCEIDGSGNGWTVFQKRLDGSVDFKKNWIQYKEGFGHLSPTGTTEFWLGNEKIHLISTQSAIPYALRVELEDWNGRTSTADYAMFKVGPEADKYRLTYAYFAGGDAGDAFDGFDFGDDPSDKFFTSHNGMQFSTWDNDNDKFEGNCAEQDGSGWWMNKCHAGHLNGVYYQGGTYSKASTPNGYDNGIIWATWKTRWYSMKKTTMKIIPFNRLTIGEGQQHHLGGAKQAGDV

B1: pL1 aptamer (ssDNA)
DNA: GTTCGATTGGATTGTGCCGGAAGTGCTGGCTCGAAC
[1]
  binding result: binds
fibrinogen
  binding result: no binding
[2]
  binding result: no binding
[3]
  binding result: binds
